# Patent US20230365714A1 (published 2023)
# Residue numbers refer to the chain shown, from its start.
# B1: IgG1-ROR2-A-HC3LC2-FEAR (antibody, V domains shown)
# VH: EVQLLESGGGLVQPGGSLRLSCTVSGFSLSSYSMSWVRQAPGKGLEWIGVIYVNSKTWYANWAKGRFTISKTSTTVYLQMNSLRAEDTATYYCARGDAGYTTNSWLWGQGTLVTVSS
# VL: AFELTQSPSSLSASVGDRVTITCQASESIDNYLSWYQQKPGKAPKLLIYQAFKLASGVPSRFRGSGSGTDFTLTISSLQSEDFATYYCQSYSGISTTAFGGGTEVVIK
# notes: Humanized variant
# B2: IgG1-ROR2-A-HC7LC2-FEAR (antibody, V domains shown)
# VH: EVQLLESGGGLVQPGGSLRLSCAASGFSLSSYSMSWVRQAPGKGLEWIGVIYVNSKTWYADSVKGRFTISKDNSKNTVYLQMNSLRAEDTATYYCARGDAGYTTNSWLWGQGTLVTVSS
# VL: B1 VL
# notes: Humanized variant
# B3: IgG1-ROR2-A-HC1LC2-FEAR (antibody, V domains shown)
# VH: QSVLESGGGLVQPGGSLRLSCTVSGFSLSSYSMSWVRQAPGKGLEWIGVIYVNSKTWYANWAKGRFTISKTSTTVDLKITSPTAEDTATYFCARGDAGYTTNSWLWGQGTLVTVSS
# VL: B1 VL
# notes: Humanized variant
# B4: IgG1-ROR2-A-HC5LC4-FEAR (antibody)
# heavy: EVQLLESGGGLVQPGGSLRLSCAASGFSLSSYSMSWVRQAPGKGLEWIGVIYVNSKTWYANWAKGRFTISKDNSKNTVYLQMNSLRAEDTATYYCARGDAGYTTNSWLWGQGTLVTVSSASTKGPSVFPLAPSSKSTSGGTAALGCLVKDYFPEPVTVSWNSGALTSGVHTFPAVLQSSGLYSLSSVVTVPSSSLGTQTYICNVNHKPSNTKVDKRVEPKSCDKTHTCPPCPAPEFEGGPSVFLFPPKPKDTLMISRTPEVTCVVVAVSHEDPEVKFNWYVDGVEVHNAKTKPREEQYNSTYRVVSVLTVLHQDWLNGKEYKCKVSNKALPAPIEKTISKAKGQPREPQVYTLPPSREEMTKNQVSLTCLVKGFYPSDIAVEWESNGQPENNYKTTPPVLDSDGSFFLYSRLTVDKSRWQQGNVFSCSVMHEALHNHYTQKSLSLSPGK
# VL: B1 VL with A1D, F2I, E3Q, S80P, E104K, V106E
# notes: Humanized variant
# B5: IgG1-ROR2-A-HC5LC2-FEAR (antibody, V domains shown)
# VH: B2 VH with D61N, S62W, V63A
# VL: B1 VL
# notes: Humanized variant
# B6: IgG1-ROR2-A-HC3LC1-FEAR (antibody, V domains shown)
# VH: B1 VH
# VL: B1 VL with L33C
# notes: Humanized variant
# B7: IgG1-ROR2-A-HC7LC4-FEAR (antibody)
# heavy: B4 heavy with N61D, W62S, A63V
# VL: B1 VL with A1D, F2I, E3Q, S80P, E104K, V106E
# notes: Humanized variant
# B8: IgG1-ROR2-A-HC3LC3-FEAR (antibody)
# heavy: EVQLLESGGGLVQPGGSLRLSCTVSGFSLSSYSMSWVRQAPGKGLEWIGVIYVNSKTWYANWAKGRFTISKTSTTVYLQMNSLRAEDTATYYCARGDAGYTTNSWLWGQGTLVTVSSASTKGPSVFPLAPSSKSTSGGTAALGCLVKDYFPEPVTVSWNSGALTSGVHTFPAVLQSSGLYSLSSVVTVPSSSLGTQTYICNVNHKPSNTKVDKRVEPKSCDKTHTCPPCPAPEFEGGPSVFLFPPKPKDTLMISRTPEVTCVVVAVSHEDPEVKFNWYVDGVEVHNAKTKPREEQYNSTYRVVSVLTVLHQDWLNGKEYKCKVSNKALPAPIEKTISKAKGQPREPQVYTLPPSREEMTKNQVSLTCLVKGFYPSDIAVEWESNGQPENNYKTTPPVLDSDGSFFLYSRLTVDKSRWQQGNVFSCSVMHEALHNHYTQKSLSLSPGK
# VL: B1 VL with S80P, E104K, V106E
# notes: Humanized variant
# B9: IgG1-ROR2-A-HC5LC3-FEAR (antibody)
# heavy: B4 heavy
# VL: B1 VL with S80P, E104K, V106E
# notes: Humanized variant
# B10: IgG1-ROR2-A-HC7LC3-FEAR (antibody)
# heavy: B4 heavy with N61D, W62S, A63V
# VL: B1 VL with S80P, E104K, V106E
# notes: Humanized variant
# B11: IgG1-ROR2-A-HC1LC1-FEAR (antibody, V domains shown)
# VH: B3 VH
# VL: B1 VL with L33C
# notes: Humanized variant
# B12: IgG1-ROR2-A-HC6LC4-FEAR (antibody)
# heavy: B4 heavy with A23T, A24V, N61D, W62S, A63V
# VL: B1 VL with A1D, F2I, E3Q, S80P, E104K, V106E
# notes: Humanized variant
# B13: IgG1-ROR2-A-HC4LC4-FEAR (antibody)
# heavy: B4 heavy with A23T, A24V
# VL: B1 VL with A1D, F2I, E3Q, S80P, E104K, V106E
# notes: Humanized variant
# B14: IgG1-ROR2-A-HC4LC1-FEAR (antibody, V domains shown)
# VH: B2 VH with A23T, A24V, D61N, S62W, V63A
# VL: B1 VL with L33C
# notes: Humanized variant
# B15: IgG1-ROR2-A-HC6LC2-FEAR (antibody, V domains shown)
# VH: B2 VH with A23T, A24V
# VL: B1 VL
# notes: Humanized variant
# B16: IgG1-ROR2-A-HC7LC1-FEAR (antibody, V domains shown)
# VH: B2 VH
# VL: B1 VL with L33C
# notes: Humanized variant
# B17: IgG1-ROR2-A-HC5LC1-FEAR (antibody, V domains shown)
# VH: B2 VH with D61N, S62W, V63A
# VL: B1 VL with L33C
# notes: Humanized variant
# B18: IgG1-ROR2-A-HC6LC3-FEAR (antibody)
# heavy: B4 heavy with A23T, A24V, N61D, W62S, A63V
# VL: B1 VL with S80P, E104K, V106E
# notes: Humanized variant
# B19: IgG1-ROR2-A-HC4LC2-FEAR (antibody, V domains shown)
# VH: B2 VH with A23T, A24V, D61N, S62W, V63A
# VL: B1 VL
# notes: Humanized variant
# B20: IgG1-ROR2-A-HC6LC1-FEAR (antibody, V domains shown)
# VH: B2 VH with A23T, A24V
# VL: B1 VL with L33C
# notes: Humanized variant
# B21: IgG1-ROR2-A-HC3LC4-FEAR (antibody)
# heavy: B8 heavy
# VL: B1 VL with A1D, F2I, E3Q, S80P, E104K, V106E
# notes: Humanized variant
# Molecular target: T1, his-tagged ROR2 extracellular domain (ROR2-ECD, G&P Biosciences, cat. no. FCL0192) (human, UniProt Q01974 34-403)
# T1 construct: Bought protein; also called human ROR2-ECD; recombinant human ROR2-ECD; not shown: his tag
# T1 sequence (Q01974 34-403): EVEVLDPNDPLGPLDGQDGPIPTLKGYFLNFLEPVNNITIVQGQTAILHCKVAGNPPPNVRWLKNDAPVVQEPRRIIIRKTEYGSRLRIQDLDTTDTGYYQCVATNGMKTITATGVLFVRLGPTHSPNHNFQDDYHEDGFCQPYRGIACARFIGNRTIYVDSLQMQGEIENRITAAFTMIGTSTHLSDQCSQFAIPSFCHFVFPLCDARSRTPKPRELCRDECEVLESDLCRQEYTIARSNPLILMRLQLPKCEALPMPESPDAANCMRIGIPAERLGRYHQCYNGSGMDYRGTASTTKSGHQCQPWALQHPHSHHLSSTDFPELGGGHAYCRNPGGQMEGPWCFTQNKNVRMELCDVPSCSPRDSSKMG
# Experiment: BLI (Octet), antibody on anti-human IgG Fc sensor, ROR2-ECD 1.56-100 nM as analyte
Binder,Kd [nM],koff [s⁻¹],kon [M⁻¹ s⁻¹]
B1,1.8,0.001,560000
B2,4.7,0.0025,540000
B3,1.9,0.0011,590000
B4,1.9,0.0011,550000
B5,1.8,0.00097,550000
B6,1.6,0.00088,550000
B7,5.6,0.0032,570000
B8,1.8,0.001,550000
B9,1.7,0.00084,510000
B10,5.1,0.0028,550000
B11,1.6,0.00096,590000
B12,4.4,0.0025,570000
B13,1.5,0.00092,620000
B14,2.1,0.0011,540000
B15,3.9,0.0022,560000
B16,3.8,0.0021,540000
B17,1.6,0.00088,540000
B18,4,0.0023,560000
B19,1.6,0.00095,590000
B20,3.1,0.0017,560000
B21,1.5,0.00087,580000
